Test results published in US20160347802A1.

How the values were obtained:
[1] = biological target: biotinylated recombinant human DCC (human) (UniProt P43146); assay: AVEXIS, prey on bait DCC; white = No binding
[2] = biological target: T1, human DRAXIN, AVEXIS prey or bait protein (human), Q8NBI3; assay: AVEXIS, prey on bait hDRAXIN, upper value; white = No binding; details: remark: other sources report otherwise
T1 chain: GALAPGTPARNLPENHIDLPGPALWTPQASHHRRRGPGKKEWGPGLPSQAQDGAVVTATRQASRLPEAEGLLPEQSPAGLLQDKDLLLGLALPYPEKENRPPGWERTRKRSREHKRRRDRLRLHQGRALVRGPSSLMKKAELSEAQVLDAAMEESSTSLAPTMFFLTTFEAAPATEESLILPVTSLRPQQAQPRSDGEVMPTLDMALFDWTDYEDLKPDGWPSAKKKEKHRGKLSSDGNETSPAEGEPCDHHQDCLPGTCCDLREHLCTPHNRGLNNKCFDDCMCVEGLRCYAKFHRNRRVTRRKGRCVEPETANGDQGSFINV

[3] = biological target: T1, human DRAXIN, AVEXIS prey or bait …; assay: AVEXIS, prey on bait hDRAXIN, lower value; white = No binding; details: remark: other sources report otherwise
[4] = biological target: T1, human DRAXIN, AVEXIS prey or bait …; assay: AVEXIS, prey on bait DRAXIN; white = No binding; details: remark: other sources report otherwise

B1: human Netrin-4, AVEXIS protein (ligand, UniProt Q9HB63 19-628, looked up, not shown: small tags and cut ends)
chain: GLSGVAGVSSRCEKACNPRMGNLALGRKLWADTTCGQNATELYCFYSENTDLTCRQPKCDKCNAAYPHLAHLPSAMADSSFRFPRTWWQSAEDVHREKIQLDLEAEFYFTHLIVMFKSPRPAAMVLDRSQDFGKTWKPYKYFATNCSATFGLEDDVVKKGAICTSKYSSPFPCTGGEVIFKALSPPYDTENPYSAKVQEQLKITNLRVQLLKRQSCPCQRNDLNEEPQHFTHYAIYDFIVKGSCFCNGHADQCIPVHGFRPVKAPGTFHMVHGKCMCKHNTAGSHCQHCAPLYNDRPWEAADGKTGAPNECRTCKCNGHADTCHFDVNVWEASGNRSGGVCDDCQHNTEGQYCQRCKPGFYRDLRRPFSAPDACKPCSCHPVGSAVLPANSVTFCDPSNGDCPCKPGVAGRRCDRCMVGYWGFGDYGCRPCDCAGSCDPITGDCISSHTDIDWYHEVPDFRPVHNKSEPAWEWEDAQGFSALLHSGKCECKEQTLGNAKAFCGMKYSYVLKIKILSAHDKGTHVEVNVKIKKVLKSTKLKIFRGKRTLYPESWTDRGCTCPILNPGLEYLVAGHEDIRTGKLIVNMKSFVQHWKPSLGRKVMDILKRECK
B1 showed an A486nm [1] of 0.065.

B2: human Netrin-G1, AVEXIS protein (ligand, UniProt Q9Y2I2 29-510, looked up, not shown: small tags and cut ends)
chain: HYDLCKTQIYTEEGKVWDYMACQPESTDMTKYLKVKLDPPDITCGDPPETFCAMGNPYMCNNECDASTPELAHPPELMFDFEGRHPSTFWQSATWKEYPKPLQVNITLSWSKTIELTDNIVITFESGRPDQMILEKSLDYGRTWQPYQYYATDCLDAFHMDPKSVKDLSQHTVLEIICTEEYSTGYTTNSKIIHFEIKDRFAFFAGPRLRNMASLYGQLDTTKKLRDFFTVTDLRIRLLRPAVGEIFVDELHLARYFYAISDIKVRGRCKCNLHATVCVYDNSKLTCECEHNTTGPDCGKCKKNYQGRPWSPGSYLPIPKGTANTCIPSISSIGNCECFGHSNRCSYIDLLNTVICVSCKHNTRGQHCELCRLGYFRNASAQLDDENVCIECYCNPLGSIHDRCNGSGFCECKTGTTGPKCDECLPGNSWHYGCQPNVCDNELLHCQNGGTCHNNVRCLCPAAYTGILCEKLRCEEAGSCGS
B2 showed an A486nm [1] of 0.063.

B3: human Netrin-G2, AVEXIS protein (ligand, UniProt Q96CW9 18-507, looked up, not shown: small tags and cut ends)
chain: DYDICKSWVTTDEGPTWEFYACQPKVMRLKDYVKVKVEPSGITCGDPPERFCSHENPYLCSNECDASNPDLAHPPRLMFDKEEEGLATYWQSITWSRYPSPLEANITLSWNKTVELTDDVVMTFEYGRPTVMVLEKSLDNGRTWQPYQFYAEDCMEAFGMSARRARDMSSSSAHRVLCTEEYSRWAGSKKEKHVRFEVRDRFAIFAGPDLRNMDNLYTRLESAKGLKEFFTLTDLRMRLLRPALGGTYVQRENLYKYFYAISNIEVIGRCKCNLHANLCSMREGSLQCECEHNTTGPDCGKCKKNFRTRSWRAGSYLPLPHGSPNACATAGSFGNCECYGHSNRCSYIDFLNVVTCVSCKHNTRGQHCQHCRLGYYRNGSAELDDENVCIECNCNQIGSVHDRCNETGFCECREGAAGPKCDDCLPTHYWRQGCYPNVCDDDQLLCQNGGTCLQNQRCACPRGYTGVRCEQPRCDPADDDGGLDCDRAPG
With B3 the A486nm [1] was 0.065.

B4: human DRAXIN, AVEXIS prey or bait protein, Q8NBI3 26-349 (ligand)
chain: T1 chain
With B4 the A486nm [2] was 0.054, the A486nm [3] was 0.057 and the A486nm [4] was 0.062.

B5: human DRAXIN, AVEXIS prey or bait protein (ligand)
chain: T1 chain
Binder B5 has an A486nm [1] of 0.072.

For EVMPTLDMALFDWTDYEDLKP (peptide, not shown: small tags and cut ends) [human DRAXIN 21 amino acid Netrin binding fragment, AVEXIS prey or bait protein], the A486nm [1] was 0.06.
